Assay [1] concerns the target peptide-phage 07B2S3 (fd phage) (UniProt P03661).
Assay [2] concerns the target peptide-phage 08B2S3 (fd phage) (UniProt P03661).
The target in assay [3] is HIV-1 (Lai) Nef/SH3-Hck interaction (Human immunodeficiency virus type 1 group M subtype B, UniProt P03406). Conditions: for repression of the Nef-SH3 interaction as measured in the cell assay: COS-7 cells (FIG. 5B). The text has this: This assay makes it possible to integrate the cellular toxicity and bioavailability parameters by means of quantitative and functional reading of the interaction between two protein partners.
The Checkmate™ commercial system (Promega) was adapted to the HIV-1 (Lai) Nef/SH3-Hck pair in COS-7 cell culture (FIG. 5). This system combines the expression of firefly luciferase under the control of the interaction between Nef and the SH3 domain of Hck, and the expression, which is independent, of renilla luciferase, a control for cell viability. The ratio of the intensity of these two luciferases makes it possible to quantify the activity of a Nef-SH3-interaction competitor capable of penetrating into the cell and the half-life of which is sufficient over the time period of the analysis. Other protein interactions are also reconstituted in this assay: one, which is non-SH3 (between Id and MyoD), in order to exclude the compounds having a nonspecific activity on the luciferase expression, and the other between SH3 of Hck and the SAM68 protein, in order to identify the compounds which interact via the SH3 domain and not via Nef.
The cells are transferred using Fugene6 (Roche), according to the distributor's protocol. Briefly, the plasmids PG5 (300 ng), pAct or pActNef (400 ng), pBindHckmutated or pBindHck (100 ng) and pbcks (200 ng) are mixed, and then the Fugene 6 (3 μl diluted in 100 μl of DMEM culture medium) is added. The plasmids/Fugene6 mixture is left to react for a period of 15 min at ambient temperature, and is then deposited dropwise into the cell culture well.
After expression for 24H, the cells are harvested by treatment with trypsin (Gibco, ref 25300-054), washed, and then dispensed into 96-well plates (reference 353072, Beckton Dickinson). 50 μl of DMEM culture medium are then added to each well.
The activity of a candidate inhibitor compound is tested by adding 25 μl of this diluted compound to the well already containing 50 μl of the cell culture, and the luciferase activity is determined 24 H later in each well using the DualGlo assay kit according to the recommendations of the supplier (Promega).

As usually defined, the IC50 is the concentration at which inhibition is half-maximal. In the case of “NefΔ1-57 protein (Nef HIV-1 LAI, residues 1 to 57 deleted) (from UniProt P03406 58-206)”, the IC50 in assay [1] and in assay [2] was 1 µM in each case.

“R Ahx R Ahx R Ahx R Ahx R Ahx R Ahx R W P A W L P [SEQ ID No. 19]”: the “repression of the Nef-SH3 interaction as measured in the cell assay” value (from here on “repression of the Nef-SH3 interaction”) in assay [3] is recorded as “repress the Nef-SH3 interaction as measured in the cell assay, in a dose-dependent manner”.

In the case of “R Q I K I W F Q N R Nle K W K K [SEQ ID No. 15]”, the “repression of the Nef-SH3 interaction” value in assay [3] is “repress the Nef-SH3 interaction as measured in the cell assay, in a dose-dependent manner”.

“R R R R R R R R W P A W L P [SEQ ID No. 17]”: the “repression of the Nef-SH3 interaction” value in assay [3] is recorded as “repress the Nef-SH3 interaction as measured in the cell assay, in a dose-dependent manner”.

Consider W P A W L P (WPAWLP) [SEQ ID No. 11], for which the “biological activity on the Nef-SH3 interaction (firefly/renilla luciferase ratio)” value in assay [3] (COS-7 cells, 10 to 50 μM of the peptide, compared with a control molecule, various times and periods of addition (FIG. 5B)) is reported as “does not show any notable biological activity at low concentration”.

Source of the values: US20090163410A1, “Novel Peptides and the Biological Use Thereof” (priority 2005, published 2009).
